In IntAct's records for PubMed 22164301:

B1: Protein unc-93 homolog B1 (Homo sapiens), Q9H1C4 (parent)
chain: MEAEPPLYPMAGAAGPQGDEDLLGVPDGPEAPLDELVGAYPNYNEEEEERRYYRRKRLGVLKNVLAASAGGMLTYGVYLGLLQMQLILHYDETYREVKYGNMGLPDIDSKMLMGINVTPIAALLYTPVLIRFFGTKWMMFLAVGIYALFVSTNYWERYYTLVPSAVALGMAIVPLWASMGNYITRMAQKYHEYSHYKEQDGQGMKQRPPRGSHAPYLLVFQAIFYSFFHLSFACAQLPMIYFLNHYLYDLNHTLYNVQSCGTNSHGILSGFNKTVLRTLPRSGNLIVVESVLMAVAFLAMLLVLGLCGAAYRPTEEIDLRSVGWGNIFQLPFKHVRDYRLRHLVPFFIYSGFEVLFACTGIALGYGVCSVGLERLAYLLVAYSLGASAASLLGLLGLWLPRPVPLVAGAGVHLLLTFILFFWAPVPRVLQHSWILYVAAALWGVGSALNKTGLSTLLGILYEDKERQDFIFTIYHWWQAVAIFTVYLGSSLHMKAKLAVLLVTLVAAAVSYLRMEQKLRRGVAPRQPRIPRPQHKVRGYRYLEEDNSDESDAEGEHGDGAEEEAPPAGPRPGPEPAGLGRRPCPYEQAQGGDGPEEQ
B2: Protein unc-93 homolog B1 (Homo sapiens), Q9H1C4 (parent)
chain: B1 chain
partner: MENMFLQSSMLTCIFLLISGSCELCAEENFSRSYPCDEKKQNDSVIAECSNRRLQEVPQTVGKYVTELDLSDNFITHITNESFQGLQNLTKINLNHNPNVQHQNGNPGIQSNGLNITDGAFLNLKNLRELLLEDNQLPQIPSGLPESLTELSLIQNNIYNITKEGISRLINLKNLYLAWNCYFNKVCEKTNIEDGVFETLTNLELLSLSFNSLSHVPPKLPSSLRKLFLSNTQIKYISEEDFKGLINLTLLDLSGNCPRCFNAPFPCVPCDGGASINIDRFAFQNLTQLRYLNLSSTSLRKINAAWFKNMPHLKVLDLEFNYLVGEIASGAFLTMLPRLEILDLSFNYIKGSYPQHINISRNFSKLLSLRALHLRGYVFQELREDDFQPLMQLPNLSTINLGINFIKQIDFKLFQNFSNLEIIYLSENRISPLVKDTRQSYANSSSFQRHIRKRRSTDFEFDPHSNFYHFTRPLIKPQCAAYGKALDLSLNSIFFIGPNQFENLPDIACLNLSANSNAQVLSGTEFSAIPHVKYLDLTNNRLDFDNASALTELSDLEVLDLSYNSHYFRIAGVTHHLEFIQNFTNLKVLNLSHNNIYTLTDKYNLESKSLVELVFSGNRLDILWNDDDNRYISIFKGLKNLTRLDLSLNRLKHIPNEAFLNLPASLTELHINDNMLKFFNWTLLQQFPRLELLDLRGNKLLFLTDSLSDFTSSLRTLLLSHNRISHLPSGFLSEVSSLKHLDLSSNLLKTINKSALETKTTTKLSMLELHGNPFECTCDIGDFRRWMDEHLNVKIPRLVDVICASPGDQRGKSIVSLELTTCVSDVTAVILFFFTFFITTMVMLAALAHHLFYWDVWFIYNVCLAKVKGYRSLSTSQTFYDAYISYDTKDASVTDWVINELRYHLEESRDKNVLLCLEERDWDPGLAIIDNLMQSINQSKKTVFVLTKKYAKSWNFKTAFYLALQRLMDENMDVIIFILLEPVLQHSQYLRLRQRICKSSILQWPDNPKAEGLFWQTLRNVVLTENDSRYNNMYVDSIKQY

Variants of: B1
Conditions: with tlr3_human TLR3, O15455

effect of a mutation on the interaction | Variant
disrupting interaction strength | MEAEPPLYPMAGAAGPQGDEDLLGVPDGPEAPLDELVGAYPNYNEEEEERRYYRRKRLGVLKNVLAASAGGMLTYGVYLGLLQMQLILHYDETYREVKYGNMGLPDIDSKMLMGINVTPIAALLYTPVLIRFFGTKWMMFLAVGIYALFVSTNYWERYYTLVPSAVALGMAIVPLWASMGNYITRMAQKYHEYSHYKEQDGQGMKQRPPRGSHAPYLLVFQAIFYSFFHLSFACAQLPMIYFLNHYLYDLNHTLYNVQSCGTNSHGILSGFNKTVLRTLPRSGNLIVVESVLMAVAFLAMLLVLGLCGAAYRPTEEIDLRSVGWGNIFQLPFKHVRDYRLRHLVPFFIYSGFEVLFACTGIALGYGVCSVGLERLAYLLVAYSLGASAASLLGLLGLWLPRPVPLVAGAGVRLLLTFILFFWAPVPRVLQHSWILYVAAALWGVGSALNKTGLSTLLGILYEDKERQDFIFTIYHWWQAVAIFTVYLGSSLHMKAKLAVLLVTLVAAAVSYLRMEQKLRRGVAPRQPRIPRPQHKVRGYRYLEEDNSDESDAEGEHGDGAEEEAPPAGPRPGPEPAGLGRRPCPYEQAQGGDGPEEQ [H412R]

Variants of: B2
Conditions: with tlr8_human TLR8, Q9NR97

effect of a mutation on the interaction | Variant
disrupting interaction strength | MEAEPPLYPMAGAAGPQGDEDLLGVPDGPEAPLDELVGAYPNYNEEEEERRYYRRKRLGVLKNVLAASAGGMLTYGVYLGLLQMQLILHYDETYREVKYGNMGLPDIDSKMLMGINVTPIAALLYTPVLIRFFGTKWMMFLAVGIYALFVSTNYWERYYTLVPSAVALGMAIVPLWASMGNYITRMAQKYHEYSHYKEQDGQGMKQRPPRGSHAPYLLVFQAIFYSFFHLSFACAQLPMIYFLNHYLYDLNHTLYNVQSCGTNSHGILSGFNKTVLRTLPRSGNLIVVESVLMAVAFLAMLLVLGLCGAAYRPTEEIDLRSVGWGNIFQLPFKHVRDYRLRHLVPFFIYSGFEVLFACTGIALGYGVCSVGLERLAYLLVAYSLGASAASLLGLLGLWLPRPVPLVAGAGVRLLLTFILFFWAPVPRVLQHSWILYVAAALWGVGSALNKTGLSTLLGILYEDKERQDFIFTIYHWWQAVAIFTVYLGSSLHMKAKLAVLLVTLVAAAVSYLRMEQKLRRGVAPRQPRIPRPQHKVRGYRYLEEDNSDESDAEGEHGDGAEEEAPPAGPRPGPEPAGLGRRPCPYEQAQGGDGPEEQ [H412R]
